Reference: publication PMC4356369, “An intermolecular binding mechanism involving multiple LysM domains mediates carbohydrate recognition by an endopeptidase” (Acta Crystallographica Section D: Biological Crystallography, 2015)
One block for each molecule: values may come before it.

What was measured:
[1] = biological target: T1, P60_tth (TTHA0266), full-length (Thermus thermophilus, UniProt Q5SLM7, F76A/R80A/E99A); assay: microscale thermophoresis; type: binding; conditions: labelled protein (200 nM); 50 mM phosphate pH 7.5, 0.1% Tween 20; incubated 1 h at 60°C, measured at room temperature; P60_tth_LysM2_mut
T1 construct: full-length P60_tth (LysM1, LysM2, NlpC/P60 catalytic domain); Trx/His/S-tag fusion cut by TEV, expressed in E. coli BL21 Rosetta 2 (DE3)

[2] = biological target: T2, P60_tth (TTHA0266), full-length (Thermus thermophilus, UniProt Q5SLM7); assay: microscale thermophoresis; type: binding; conditions: labelled protein (200 nM); 50 mM phosphate pH 7.5, 0.1% Tween 20; incubated 1 h at 60°C, measured at room temperature; read-out: apparent Kd
T2 construct: full-length P60_tth (LysM1, LysM2, NlpC/P60 catalytic domain); Trx/His/S-tag fusion cut by TEV, expressed in E. coli BL21 Rosetta 2 (DE3)

[3] = biological target: T3, P60_tth (TTHA0266), full-length (Thermus thermophilus, UniProt Q5SLM7, Y28A/R32A/F50A/Q53A); assay: microscale thermophoresis; type: binding; conditions: labelled protein (200 nM); 50 mM phosphate pH 7.5, 0.1% Tween 20; incubated 1 h at 60°C, measured at room temperature; P60_tth_LysM1_mut (Nus/His/S-tag fusion, tags cleaved)
T3 construct: full-length P60_tth (LysM1, LysM2, NlpC/P60 catalytic domain); Trx/His/S-tag fusion cut by TEV, expressed in E. coli BL21 Rosetta 2 (DE3)

P60_2LysM = biological target: T4, P60_2LysM (Thermus thermophilus, UniProt Q5SLM7); assay: X-ray co-crystal structure, […] Å; type: binding; conditions: co-crystallized at protein:sugar 1:2; LysM1 and LysM2 of symmetry-related monomers share one ligand; pH 6.5
T4 construct: gene TTHA0266; LysM1-LysM2 only, no catalytic domain; Trx/His/S-tag fusion cut by TEV, expressed in E. coli

[4] = biological target: P60_cata (catalytic domain of P60_tth alone) (Thermus thermophilus); assay: SEC; Superdex 75 10/300 GL, 50 mM Tris-HCl pH 8, 200 mM NaCl, 5 mM beta-mercaptoethanol, 0.5 ml/min; apparent molecular weight from a calibration curve
[5] = biological target: P60_cata (catalytic domain of P60_tth alone) (Thermus thermophilus); assay: SAXS; small-angle X-ray scattering in solution, ESRF beamline BM-29; molecular weight estimated from the scattering; models evaluated with CRYSOL and CORAL
[6] = biological target: P60_tth (TTHA0266), NlpC/P60 D,L-endopeptidase from Thermus thermophilus, full-length protein (Thermus thermophilus) (UniProt Q5SLM7); assay: SEC; Superdex 75 10/300 GL, 50 mM Tris-HCl pH 8, 200 mM NaCl, 5 mM beta-mercaptoethanol, 0.5 ml/min; apparent molecular weight from a calibration curve
[7] = biological target: P60_tth (TTHA0266), NlpC/P60 D,L-endopeptidase from Thermus thermophilus, full-length protein (Thermus thermophilus) (UniProt Q5SLM7); assay: SAXS; small-angle X-ray scattering in solution, ESRF beamline BM-29; molecular weight estimated from the scattering; models evaluated with CRYSOL and CORAL
[8] = biological target: the molecule itself; assay: SEC; Superdex 75 10/300 GL, 50 mM Tris-HCl pH 8, 200 mM NaCl, 5 mM beta-mercaptoethanol, 0.5 ml/min; apparent molecular weight from a calibration curve

T3 sequence (Q5SLM7 entry or part of it Y28A/R32A/F50A/Q53A): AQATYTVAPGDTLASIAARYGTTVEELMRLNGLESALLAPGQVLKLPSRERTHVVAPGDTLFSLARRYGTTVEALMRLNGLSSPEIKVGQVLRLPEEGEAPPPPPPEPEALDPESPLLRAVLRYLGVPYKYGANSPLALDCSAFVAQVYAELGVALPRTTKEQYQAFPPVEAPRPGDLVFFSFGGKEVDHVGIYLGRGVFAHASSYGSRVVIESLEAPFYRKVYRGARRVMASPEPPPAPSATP
T1 sequence (Q5SLM7 entry or part of it F76A/R80A/E99A): as the sequence (Q5SLM7 entry or part of it Y28A/R32A/F50A/Q53A) above, with A14Y, A18R, A36F, A39Q, F62A, R66A, E85A counted along it
T2 sequence (Q5SLM7 15-258): as the sequence (Q5SLM7 entry or part of it Y28A/R32A/F50A/Q53A) above, with A14Y, A18R, A36F, A39Q counted along it
T4 sequence (Q5SLM7 15-114 limits assumed): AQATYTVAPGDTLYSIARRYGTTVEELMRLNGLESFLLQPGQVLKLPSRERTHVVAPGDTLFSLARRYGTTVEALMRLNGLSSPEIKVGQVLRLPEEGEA

Kd [1]: 292 ± 86.5 µM | Kd [2]: 90 ± 19.8 µM | Kd [3]: 321 ± 112 µM
Molecule: CC(=O)N[C@H]1[C@H](O[C@H]2[C@H](O)[C@@H](NC(C)=O)[C@H](O[C@H]3[C@H](O)[C@@H](NC(C)=O)C(O)O[C@@H]3CO)O[C@@H]2CO)O[C@H](CO)[C@@H](O[C@@H]2O[C@H](CO)[C@@H](O[C@@H]3O[C@H](CO)[C@@H](O[C@@H]4O[C@H](CO)[C@@H](O)[C@H](O)[C@H]4NC(C)=O)[C@H](O)[C@H]3NC(C)=O)[C@H](O)[C@H]2NC(C)=O)[C@@H]1O (stereo partly drawn) [chitohexaose]
X-ray co-crystal structure, 1.75 Å (P60_2LysM): solved the crystal structure of P60_2LysM bound to chitohexaose

stoichiometry N [4]: 2 | stoichiometry N [5]: 2
Molecule: P60_cata (catalytic domain of P60_tth alone) (domain or fragment)

stoichiometry N [6]: 2 | stoichiometry N [7]: 2
Molecule: P60_tth (TTHA0266), NlpC/P60 D,L-endopeptidase from Thermus thermophilus, full-length protein (from UniProt Q5SLM7 1-258) (enzyme)

B1: P60_1LysM (P60_tth with the N-terminal LysM domain deleted) (domain or fragment, Thermus thermophilus, UniProt Q5SLM7 62-258, looked up)
chain: SRERTHVVAPGDTLFSLARRYGTTVEALMRLNGLSSPEIKVGQVLRLPEEGEAPPPPPPEPEALDPESPLLRAVLRYLGVPYKYGANSPLALDCSAFVAQVYAELGVALPRTTKEQYQAFPPVEAPRPGDLVFFSFGGKEVDHVGIYLGRGVFAHASSYGSRVVIESLEAPFYRKVYRGARRVMASPEPPPAPSATP
notes: TTHA0266 (P60_tth) of Thermus thermophilus without the N-terminal LysM domain (LysM2, linker and catalytic domain); predicted molecular weight 21.4 kDa; with Val69 and Thr74 of the text this puts the first residue at Ser62; The start was worked out from the translated primer and the residue numbers printed for LysM2; the C-terminus is as in the full-length construct; source: E. coli BL21 Rosetta …
stoichiometry N [8]: 2
